± gives the half width of the 95% confidence interval.
What was measured:
[1] = folding stability dG unfold from trypsin proteolysis; higher = more stable
Summary of the method: (§1)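 K50 was inferred by Bayesian fitting of sequencing counts obtained after protease digestion of designed mini-proteins. Unfolding free energy was derived by comparison with a sequence-predicted unfolded-state K50 and a shared folded-state K50, for each protease or both combined. The mini-proteins were under 80 residues, had no cysteine, were carried in a PA-tagged cDNA display construct, and were kept only if AlphaFold2 dimer inter-PAE exceeded 15.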

[2] = folding stability dG unfold from chymotrypsin proteolysis; higher = more stable
Summary of the method: as §1

[3] = folding stability dG unfold (combined trypsin and chymotrypsin); higher = more stable
Summary of the method: as §1

Row | Sequence | folding stability dG unfold [1] [kcal/mol] | folding stability dG unfold [2] [kcal/mol] | folding stability dG unfold [3] [kcal/mol]
1 | SAGGSAGGSMKITKTEEGVYLVEFTLPDGTPLVIPFPTDDPFLTEEQAVEIAKPIAAAFAAAGSAGGSAGGS [r12_642_TrMRF] | 0.84 ± 0.016 | 1.35 ± 0.038 | 1.22 ± 0.044
2 | SAGGSAGGSMKKLKITFPPGMTEEELKKKIEELAKKLNLEVVKIKSIEYDKENKEVTITVEIKSAGGSAGGS [r12_131_TrROS_Hall] | 4.2 ± 0.17 | 3.77 ± 0.059 | 3.87 ± 0.088
3 | SAGGSAGGSMKRLPDGNLVVKLNNGSTWSVITIPVSPDESEEEIKQRLKELFGPNYPEYDISESAGGSAGGS [r12_300_JUSTAS] | 1.08 ± 0.011 | 0.917 ± 0.09 | 1.04 ± 0.058
4 | SAGGSAGGSMKTVEIELVNKETGKKVTITVNDGKVTIRITNPDGEEKELEFPSLEEALEALLSSAGGSAGGS [r12_511_TrROS_Hall] | 2.45 ± 0.14 | 1.93 ± 0.19 | 2.19 ± 0.2
5 | SAGGSAGGSMKTYTLPNGLRVQLVRVDKKTKTITLKVFDKNGELVEEIEIKVDEPVELLVVYPSAGGSAGGS [r12_960_TrROS_Hall] | 2.09 ± 0.061 | 2.69 ± 0.05 | 2.45 ± 0.15
6 | SAGGSAGGSMKVSPASRSEFDGSRVITITVTKEGTGTTTDITIPFSPDEPDVDEVAKAIAESLSAGGSAGGS [r12_415_JUSTAS] | 0.0886 ± 0.12 | 1.12 ± 0.023 | 0.838 ± 0.091
7 | SAGGSAGGSMKVVKILSIETKAEKDEEVLTIPVLDPANGKVITLTVSPEVAKTITTDDEIELLSAGGSAGGS [r12_382_JUSTAS] | 0.177 ± 0.14 | 0.517 ± 0.12 | 0.47 ± 0.14
8 | SAGGSAGGSMKVVVTAKLPGGEVLQKTIPVDESVLKKMSKEEVIELLKKEGLPENVEIKFEPKSAGGSAGGS [r12_742_JUSTAS] | 1.34 ± 0.067 | 2.17 ± 0.15 | 1.81 ± 0.24
9 | SAGGSAGGSMKYLVTFPEGGPVPLPDGTSVALAPGAVLELETEEEAEALKALNPGRPVVITPVSAGGSAGGS [r12_987_JUSTAS] | 1.51 ± 0.037 | 1.35 ± 0.03 | 1.47 ± 0.05
10 | SAGGSAGGSMKYYKTKDGKIVKAPPIETVKLKLKLEINGKKIEIEIEMSKEEIDKLLKELEKKSAGGSAGGS [r20_148_TrROS_Hall] | 0.717 ± 0.051 | 1.27 ± 0.17 | 1.05 ± 0.13
11 | SAGGSAGGSMLPADTKVIKITVESTLPDGSTTTHTVTVPSSVPLEAVKEQLPPGATITEVVLASAGGSAGGS [r12_597_JUSTAS] | 1.44 ± 0.064 | 0.931 ± 0.011 | 1.16 ± 0.059
12 | SAGGSAGGSMLPLPIESIEVVPRRAPGGKTYYVAFIRLKADGKPLVIEFEADNPGEALEKLEASAGGSAGGS [r20_238_TrMRF] | 1.14 ± 0.046 | 1.46 ± 0.11 | 1.34 ± 0.14
13 | SAGGSAGGSMLTVKITLPNGEKIEIEIEAESEEEAKAAAEKLLEALREAGVSLEDVKVEVVEPSAGGSAGGS [r12_295_TrROS_Hall] | 4.46 ± 0.67 | 2.92 ± 0.11 | 3.66 ± 0.29
14 | SAGGSAGGSMNVPPGESVTVTVPPGTGLEWLRAQLPSSRTWDFATFVSENPSPPVTTYEITVGSAGGSAGGS [r12_469_JUSTAS] | 1.16 ± 0.078 | 2 ± 0.077 | 1.76 ± 0.11
15 | SAGGSAGGSMPKKTYEFEIEYEDPEEAVEKAIREFEEETGEKIEEVEVEYDPEKGIVKITLVKSAGGSAGGS [r12_265_JUSTAS] | 0.921 ± 0.066 | 1.44 ± 0.088 | 1.27 ± 0.21
16 | SAGGSAGGSMPKTYSFKVKSKEEIVKLIEELKKLGAKKVEVKELPDGYELYVEVGDSVIKVYSSAGGSAGGS [r12_846_TrMRF] | 1.31 ± 0.065 | 1.1 ± 0.16 | 1.24 ± 0.13
17 | SAGGSAGGSMPPVVLEVKDPESGKVTTLFFFPPTGEALVVPPDGSVFYEPFTSLDELVERLAGSAGGSAGGS [r12_511_TrMRF] | 1.4 ± 0.055 | 1.71 ± 0.051 | 1.57 ± 0.091
18 | SAGGSAGGSMPVITVDPSIKEFKDEKGNKYLLTPVTVTLPNGVPVTVVYTTDPSTGKTTPATSGSAGGSAGG [r6_298_JUSTAS] | 0.671 ± 0.059 | 0.481 ± 0.12 | 0.62 ± 0.1

Row | Sequence | folding stability dG unfold [1] [kcal/mol] | folding stability dG unfold [2] [kcal/mol] | folding stability dG unfold [3] [kcal/mol]
19 | SAGGSAGGSMPVLVSESPVGTLPDGTKVTRVTYRFPNGEILTETVVEPGPGPPTPENVALTLASAGGSAGGS [r12_775_JUSTAS] | 2.04 ± 0.18 | 1.19 ± 0.23 | 1.6 ± 0.29
20 | SAGGSAGGSMRFPPGQKIEIEEWKHNPNGGNYQVSIRFKDGKKKTFTSPEDIDRLIKAGHVKISAGGSAGGS [r12_455_TrROS] | -0.0362 ± 0.26 | 1.33 ± 0.19 | 0.822 ± 0.21
21 | SAGGSAGGSMRIKFEFKIGDKWVEEEIPADLSQLPLSEIKKKHPKAEYKIEIEDEEGNWTPLLSAGGSAGGS [r12_540_JUSTAS] | 0.262 ± 0.11 | 1.04 ± 0.1 | 0.767 ± 0.12
22 | SAGGSAGGSMRLDLDDIKRVEREPTPNGMRVYEIKLKGHKLPIRYHDNKIEISPEFKDLLKDISAGGSAGGS [r20_92_TrROS] | -0.382 ± 0.19 | -0.483 ± 0.23 | -0.253 ± 0.15
23 | SAGGSAGGSMSEELLAEGPVRIRVRVRNKDGSVEEIEVEAGEEIELPEELKNQDVEIVSIEPVSAGGSAGGS [r12_161_TrROS_Hall] | 0.838 ± 0.058 | 2.15 ± 0.088 | 1.74 ± 0.089
24 | SAGGSAGGSMSPEEAKKLAEELAKKLGLEKVEIVEIKVEVDEETNEIKVTIYIRGKDGKWYKLSAGGSAGGS [r12_508_TrROS_Hall] | 3.48 ± 0.18 | 4.2 ± 0.07 | 3.96 ± 0.074
25 | SAGGSAGGSMSPEEARALAEALAEALGEPDVEVLEVVQTENPAADSTTVTVTIRLPDGSVRVLSAGGSAGGS [r12_508_JUSTAS] | 1.63 ± 0.079 | 1.481 ± 0.014 | 1.63 ± 0.06
26 | SAGGSAGGSMSPSESVTLTVVVEEITPGTPKVLLPEEVKEKYPNFEVQVKVEGKPATVTITRPSAGGSAGGS [r12_900_JUSTAS] | 0.321 ± 0.021 | 0.444 ± 0.017 | 0.385 ± 0.077
27 | SAGGSAGGSMTFSSEEEAEAFIAQLPPDSEVEVEIKDPNTDKTTKYKIKVPPEQPVYSPKGVLSAGGSAGGS [r12_393_JUSTAS] | 0.308 ± 0.11 | 1.5 ± 0.063 | 1.2 ± 0.14
28 | SAGGSAGGSMTILEEEVVPETGLVRILVKLPNGELLELEVDPSVGVTPVKVDGKPIFDVTVDPSAGGSAGGS [r12_789_JUSTAS] | 0.898 ± 0.038 | 1.3 ± 0.082 | 1.19 ± 0.11
29 | SAGGSAGGSMTKTITTKTEEEAESEARRLLKEEGVPEGVEPTPITLESVDPEKGLYTFTVELESAGGSAGGS [r12_999_JUSTAS] | 0.2 ± 0.062 | 0.395 ± 0.099 | 0.379 ± 0.076
30 | SAGGSAGGSMTLIGTTTLPSPDGSLVTVDTYKVPGSDELVAKVTTLNGTTWTTETRPLSEFLKSAGGSAGGS [r12_1063_JUSTAS] | 0.188 ± 0.081 | 0.913 ± 0.14 | 0.646 ± 0.1
31 | SAGGSAGGSMTLKVTLPNGKVIELPLPEELENIPAETIAKLLGEENVRLELYSPDGVPYDFGASAGGSAGGS [r12_411_TrMRF] | 1.18 ± 0.029 | 0.726 ± 0.09 | 1.03 ± 0.099
32 | SAGGSAGGSMTLVLEVDSVEDALAAVEALLPPGYRVTIEVEERGGRLLVTITIEPAPAPPPEESAGGSAGGS [r12_195_TrROS_Hall] | 1.92 ± 0.083 | 3.51 ± 0.075 | 3.16 ± 0.071
33 | SAGGSAGGSMTRTITLSKEELKKKYPNATLEEIAKDIIEKEPGVKEVTVEEFPGTVKITVTKLSAGGSAGGS [r12_590_JUSTAS] | 2 ± 0.086 | 2.84 ± 0.058 | 2.57 ± 0.18
34 | SAGGSAGGSMTVERNVTSEEEAEEWREEIEKELGVKVEEVIREETEEGDLRVKFVIEIPEDLKSAGGSAGGS [r12_577_JUSTAS] | 0.37 ± 0.069 | -0.367 ± 0.2 | 0.0537 ± 0.18
35 | SAGGSAGGSMTVETTPLATSRDPESDNTVTLTRTTVTFPDGTVRTETWTVTTAPDGTTTTTVSSAGGSAGGS [r12_250_JUSTAS] | 0.00376 ± 0.037 | 1.35 ± 0.033 | 0.999 ± 0.049

From the supplement of paper PMC12764529
